Reduction of the concatemer peaks and stoichiometry N (LINGO-1 per mAb) data for three substances are collected here from paper PMC6973334.

“And” between values parts separate entries of the source, which are not always exact repeats. Identical values can stand only once. Like-named read-outs stand apart in the source and are kept apart here.

Experiment [1] concerns the target LINGO-1 ectodomain (free ectodomain made from LINGO-1-Fc by limited proteolysis with chymotrypsin) (Homo sapiens). Put plainly: SEC. For orientation: SEC sorts molecules by how far they enter the pores of the column.
Experiment [2] shares this target. Put plainly: SEC-MALS.
Experiment [3] has the same target. Put plainly: SEC-MALS. The source holds these as a separate data set.

Sequence of LINGO-1 ectodomain (free ectodomain made from LINGO-1-Fc by limited proteolysis with chymotrypsin) (Homo sapiens) (Q96FE5 42-561): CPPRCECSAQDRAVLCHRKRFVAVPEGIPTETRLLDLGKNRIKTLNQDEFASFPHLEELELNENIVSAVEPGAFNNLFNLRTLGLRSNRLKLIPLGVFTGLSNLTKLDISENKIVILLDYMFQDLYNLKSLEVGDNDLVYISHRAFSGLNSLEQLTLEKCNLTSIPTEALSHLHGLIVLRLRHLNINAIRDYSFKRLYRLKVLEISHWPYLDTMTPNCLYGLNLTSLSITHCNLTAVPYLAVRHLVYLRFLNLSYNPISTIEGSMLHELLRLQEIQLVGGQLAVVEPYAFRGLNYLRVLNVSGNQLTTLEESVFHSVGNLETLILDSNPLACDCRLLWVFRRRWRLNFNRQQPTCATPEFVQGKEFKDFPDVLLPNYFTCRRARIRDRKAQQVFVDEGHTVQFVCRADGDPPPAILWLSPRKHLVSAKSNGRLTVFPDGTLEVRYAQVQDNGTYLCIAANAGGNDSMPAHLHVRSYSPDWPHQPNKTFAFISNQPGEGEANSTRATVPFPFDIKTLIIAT

Li81 R18S/S31R mAb (antibody) had a reduction of the concatemer peaks in experiment [1] of 25%.

The substance Li81 R18S/R54T mAb (antibody) registered a reduction of the concatemer peaks in experiment [1] of 50%.

As to Li81 R18S/S31R/R54T mAb (antibody), the stoichiometry N (LINGO-1 per mAb) was 2 and 1 in experiment [2]; 2 in experiment [3].
